Data as given in the supplement of paper PMC9170038.

System: MS2 coat protein
Test: apparent KD of MS2 coat protein; designed switch direction (-1 OFF switch, 1 ON switch): -1; higher = weaker reporter binding
How it was run: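 The apparent KD reported per design is the median over clusters of curve fits to normalised cluster fluorescence. The RNA switches were transcribed on Illumina chips by stalled E. coli RNA polymerase. SNAP-549-labelled MS2 coat protein was titrated from 0.7 or 1.5 nM, doubling up to 3 µM, in Tris-HCl pH 7.5 buffer containing KCl, MgCl2, BSA, DTT, tRNA and Tween-20, with no input, 200 uM small-molecule ligand, or an oligonucleotide input.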

[1] = Eterna round: R95, input ligand: FMN 200 uM
[2] = Eterna round: R95, input ligand: microRNA oligo, concentration not stated
[3] = Eterna round: R95, input ligand: none

| Sequence | apparent KD of MS2 coat protein [2] [µM] | apparent KD of MS2 coat protein (input ligand: FMN 200 uM) [µM] | apparent KD of MS2 coat protein (input ligand: none) [µM] | other results |
| --- | --- | --- | --- | --- |
| AAGUACCGUCACGAUAGUGAUGGUACAACAGGCAGUGAAACAUGAGGAUCACCCAUGUCCUCAAUUGCUCGUCUUAU [Sensor 3 - 77] (puzzle: Sensor v3, turn-off variant 2) | 0.192 | – | – | apparent KD of MS2 coat protein [1]: 0.0776 µM; apparent KD of MS2 coat protein [3]: 0.0987 µM |
| AAGUAGACGGUGAGGAUAUAGGUCGAAUGACCGAUUUAGAAGGUACAUGAGGAUCACCCAUGUGGGUAACGUCG [Brourd's EX4 #29] (Eterna round: R97, puzzle: Brourd's mod of Exclusion 4) | – | 0.0565 | 0.107 | – |
| AAGUAUAGAGGAUAUAGUGAGUACUACAUGAGGAUCACCCAUGUUCUUCAUUACGUAUUUCUAGAAGGCUGAUAAA [EX-5 Malc#24] (puzzle: Exclusion 5) | 0.261 | – | – | apparent KD of MS2 coat protein [1]: 0.611 µM; apparent KD of MS2 coat protein [3]: 0.289 µM |
| AAGUCGACGGUGAGGAUAUAGGUCGAACGACAGAUCUAGAAGGUACAUGAGGAUCACCCAUGUGGGUAACGUCG [Brourd's EX4 #35] (Eterna round: R97, puzzle: Brourd's mod of Exclusion 4) | – | 0.0368 | 0.0324 | – |
| AAGUCGACGGUGAGGAUAUAGGUCGAACGACCGAUCUAGAAGGCACAUGAGGAUCACCCAUGUGGGUAACGUCG [Brourd's EX4 #33] (Eterna round: R97, puzzle: Brourd's mod of Exclusion 4) | – | 0.029 | 0.0223 | – |
| AAUAAAACAUAGGAUAUCGAAUUUAUUAUUUAACGAGAAGGAUGAACAUGAGGAUCACCCAUGUGGUAUCAUGG [Mat - Exclusion 6 - JL Mod - D24] (puzzle: Exclusion 6) | 0.19 | – | – | apparent KD of MS2 coat protein [1]: 0.258 µM; apparent KD of MS2 coat protein [3]: 0.207 µM |
| AAUAACAAGCAGAUCCUAAACAUGAGGAUCACCCAUGUGCGCGUCUUGUAAAGUACUAUCACGAAAGUGAUAGUACA (Eterna round: R97, puzzle: Sensor, turn-off variant 1) | – | 0.19 | 0.133 | – |
| AAUAACAAGCCGAUCCUUCACAUGAGGAUCACCCAUGUGCUCGUCUUGUAAAGUACUAUCACGAAAGUGAUAGUACA (Eterna round: R97, puzzle: Sensor, turn-off variant 1) | – | 0.0226 | 0.0199 | – |
| AAUAACAGAGGAUAUACUGUUUUAUGUGUUUAUUGUUUUAAACAUGAGGAUCACCCAUGUAGAAGGCUGAAUGA [JMF 58] (puzzle: Exclusion 2) | 0.0364 | – | – | – |
| AAUAACAGAGGAUAUACUGUUUUAUGUGUUUAUUGUUUUGAACAUGAGGAUCACCCAUGUAGAAGGCUGAGUAA [JMF 39] (puzzle: Exclusion 2) | 0.0245 | – | – | – |
| AAUAACAGAGGAUAUACUGUUUUAUGUGUUUGUUAUUUUGAACAUGAGGAUCACCCAUGUAGAAGGCUGAGUAA [JMF 37] (puzzle: Exclusion 2) | 0.0236 | – | – | – |
| AAUAACAGAGGAUAUACUGUUUUAUGUGUUUGUUGUUUUGAACAUGAGGAUCACCCAUGUAGAAGGCUGAUUAA [JMF 53] (Eterna round: R96, puzzle: Exclusion 2) | – | 0.0384 | 0.0385 | apparent KD of MS2 coat protein (input ligand: microRNA oligo, concentration not stated): 0.031 µM |
| AAUAACAGAGGAUAUACUGUUUUAUGUGUUUGUUGUUUUGAACAUGAGGAUCACCCAUGUAGAAGGCUGAUUAA [JMF 53] (puzzle: Exclusion 2) | 0.0316 | – | – | – |
| AAUAACAGGCCGAUCCUAAACAUGAGGAUCACCCAUGUGCGCGUCUUGUAAAGUACUAUCACGAAAGUGAUAGUACA [Sensor v3, turn-off variant 1 (MOD of Eli's v1-59 v.3)] (puzzle: Sensor v3, turn-off variant 1) | 0.0371 | – | – | apparent KD of MS2 coat protein [1]: 0.0418 µM; apparent KD of MS2 coat protein [3]: 0.0437 µM |
| AAUAAGGUAGGAUAUACAUGAGGAUCACCCAUGUCCCACCCGUUACCUAUGACCAUAUGUAGAAGGACCAAUAA [Exy#1] (Eterna round: R97, puzzle: Exclusion 3) | – | 0.02 | 0.0213 | – |
| AAUAAUAAUGUGAGGAUAUCUAGAGCUUCGGCUCUAGAGAAGGCACAUGAGGAUCACCCAUGUCUCAAUAAUAA [BmEx4/2-E4] (Eterna round: R97, puzzle: Brourd's mod of Exclusion 4) | – | 0.263 | 0.0534 | – |
